Laboratory results reported in PMC2788865 (The Journal of Biological Chemistry, 2009).

Target: Lys^75-FL-calmodulin (FL-CaM) (human, UniProt P0DP23 1-149, 5-(4,6-dichlorotriazinyl)aminofluorescein (FL) on Lys75)
Assay: fluorescence polarisation

B1: Ca^2+/calmodulin-dependent protein kinase IV (CaMKIV) (enzyme)
chain: MLKVTVPSCPSSPCSSVTSSTENLVPDYWIDGSKRDPLSDFFEVESELGRGATSIVYRCKQKGTQKPYALKVLKKTVDKKIVRTEIGVLLRLSHPNIIKLKEIFETPTEISLVLELVTGGELFDRIVEKGYYSERDAADAVKQILEAVAYLHENGIVHRDLKPENLLYATPAPDAPLKIADFGLSKIVEHQVLMKTVCGTPGYCAPEILRGCAYGPEVDMWSVGIITYILLCGFEPFYDERGDQFMFRRILNCEYYFISPWWDEVSLNAKDLVKKLIVLDPKKRLTTFQALQHPWVTGKAANFVHMDTAQKKLQEFNARRKLKAAVKAVVASSRLGSASSSHTNIQESNKASSEAQPAQDGKDKTDPLENKMQAGDHEAAKAAADETMKLQSEEVEEEEGVKEEEEEEEEEEETSRMVPQEPEDRLETDDQEMKRNSEETLKSVEEEMDPKAEEEAAAVGLGVPPQQDAILPEY
- binding result: binds
